The values below come from article PMC2173104.

Test in all cases: two-hybrid
Test [1] concerns the target Gal4 binding domain Iqg1p fusion protein, Iqg1p (1–1495) (S. cerevisiae) (UniProt Q12280).
For test [2], the target named is Gal4 binding domain fusion of Iqg1p (1–823) (S. cerevisiae) (UniProt Q12280).
For test [3], the target named is Gal4 binding domain fusion of Iqg1p (295–823) (S. cerevisiae) (UniProt Q12280).

“Cdc12p in pGAD-C2 (from UniProt P32468 1-407) (natural protein)”: the beta-galactosidase activity in test [1] was found to be 23 Miller units.
As to “Myosin light chain protein Mlc1p in pGAD-C2 (from UniProt P53141 1-149) (natural protein)”, the values for the beta-galactosidase activity in test [1], in test [2] and in test [3] were 98.7 Miller units, 107 Miller units and 408 Miller units, respectively.
